We go through 15 molecules from patent US20070053905A1 (Chugai, published 2007).

The target of test [1] is T1, human PTHrP (1-34) (human).
T1 construct: Synthetic peptide (Peninsula / Peptide Research Institute); coated on ELISA plates at 1 ug/ml; also called parathyroid hormone related peptide (1-34)
In words: solid phase RIA of hybridoma culture supernatant.
Description: Screening of hybridomas was performed by measuring and selecting the existence of a PTHrP recognizing antibody by applying solid phase RIA method to the culture supernatant of the wells where growth was recognized in HAT culture medium.

For test [2], the target named is T1, human PTHrP (1-34). Put plainly: ELISA on plate coated with human PTHrP (1-34). In general terms: ELISA stands for enzyme-linked immunosorbent assay.
Description: The ELISA plate for antigen binding measurement was prepared as follows. Each well of a 96 well plate for ELISA was coated with 100 μl of human PTHrP(1-34) (Peptide Research Institute) adjusted to 1 μg/ml concentration by the coating buffer. […] After the plate was incubated at room temperature and washed with PBS-Tween20, 100 μl of alkaline phosphatase (TAGO) conjugated goat anti-man IgG antibody was added. After the plate was incubated at room temperature and washed with PBS-Tween20, 1 mg/ml of a substrate solution (Sigma104, p-nitrophenylphosphate, SIGMA) was added, and, next, 405 nm absorption was measured with a micro plate reader (Bio Rad).
The ELISA plate for antigen binding measurement was prepared as follows. Each well of a 96 well plate for ELISA was coated with 100 μl of human PTHrP(1-34) adjusted to 1 μg/ml concentration by the coating buffer. After blocking with 200 μl of the dilution buffer, the culture supernatant of the COS-7 cells in which hybrid antibody or humanized antibody was expressed or the purified hybrid antibody or the humanized antibody was stepwise diluted and added to each well. After the plate was incubated at room temperature and washed with PBS-Tween20, 100 μl of alkaline phosphatase (TAGO) conjugated goat anti-man IgG antibody was added. After the plate was incubated at room temperature and washed with PBS-Tween20, 1 mg/ml of a substrate solution (Sigma104, p-nitrophenylphosphate, SIGMA) was added, and 405 nm absorption was then measured on a micro plate reader (Bio Rad).

B1: mouse monoclonal antibody #23-57-137-1 (antibody, V domains shown)
VH: EVQLVESGGDLVKPGGSLKLSCAASGFTFSSYGMSWIRQTPDKRLEWVATISSGGSYTYYPDSVKGRFTISRDNAKNTLYLQMSSLKSEDTAMFYCARQTTMTYFAYWGQGTLVTVSA
VL: QLVLTQSSSASFSLGASAKLTCTLSSQHSTYTIEWYQQQPLKPPKYVMDLKQDGSHSTGDGIPDRFSGSSSGADRYLSISNIQPEDEAMYICGVGDTIKEQFVYVFGGGTKVTVLG
notes: Mouse hybridoma antibody; The L chain is a mouse lambda chain; the H chain was cloned with a mouse gamma-1 primer (MHC-G1); also called anti-PTHrP MoAb
Consider B1, for which the binding result in the test with human PTHrP (1-34) [1] is “binds”.

B2: chimera #23-57-137-1 antibody with human L chain kappa chain C domain (antibody, IgG1, V domains shown)
VH: EVQLVESGGDLVKPGGSLKLSCAASGFTFSSYGMSWIRQTPDKRLEWVATISSGGSYTYYPDSVKGRFTISRDNAKNTLYLQMSSLKSEDTAMFYCARQTTMTYFAYWGQGTLVTVSA
VL: QLVLTQSSSASFSLGASAKLTCTLSSQHSTYTIEWYQQQPLKPPKYVMDLKQDGSHSTGDGIPDRFSGSSSGADRYLSISNIQPEDEAMYICGVGDTIKEQFVYVFGGGTKVTVLG
notes: Mouse V domains joined to human Cγ1 (IgG1) and to the human kappa C domain (from plasmid HEF-PM1k-gk); Expressed in COS-7 cells; also called chimeric antibody; MBC1HcDNA/pCOS1 + MBC1L(κ)/neo
B2: in the test with human PTHrP (1-34) [2], the binding result is “binds”.

B3: chimera #23-57-137-1 antibody with human L chain lambda chain C domain (antibody, IgG1, V domains shown)
VH: EVQLVESGGDLVKPGGSLKLSCAASGFTFSSYGMSWIRQTPDKRLEWVATISSGGSYTYYPDSVKGRFTISRDNAKNTLYLQMSSLKSEDTAMFYCARQTTMTYFAYWGQGTLVTVSA
VL: QLVLTQSSSASFSLGASAKLTCTLSSQHSTYTIEWYQQQPLKPPKYVMDLKQDGSHSTGDGIPDRFSGSSSGADRYLSISNIQPEDEAMYICGVGDTIKEQFVYVFGGGTKVTVLG
notes: Expressed in COS-7 cells; also called chimeric antibody; MBC1HcDNA/pCOS1 + MBC1L(λ)/neo
As for B3, the binding result in the test with human PTHrP (1-34) [2] is given as “binds”.

B4: humanized #23-57-137-1 antibody with H chain version "a" and L chain version "s" (antibody, V domains shown)
VH: QVQLVESGGGVVQPGRSLRLSCAASGFTFSSYGMSWVRQAPGKGLEWVATISSGGSYTYYPDSVKGRFTISRDNSKNTLYLQMNSLRAEDTAVYYCARQTTMTYFAYWGQGTLVTVSS
VL: QLVLTQSPSASASLGASVKLTCTLSSQHSTYTIEWYQQQPEKGPKYVMDLKQDGSHSTGDGIPDRFSGSSSGAERYLTISSLQSEDEADYICGVGDTIKEQFVYVFGGGTKLTVLG
notes: Human Cγ1 (IgG1) and human lambda C domain; also called hMBC1HcDNA/pCOS1 + hMBC1Lsλ/pCOS1
Turning to B4, the binding result in the test with human PTHrP (1-34) [2] is reported as “binds”.

B5: mouse FR1, 2/human FR3, 4 hybrid antibody (L chain m/hMBC1Ldλ) (antibody, V domains shown)
VH: QVQLVESGGGVVQPGRSLRLSCAASGFTFSSYGMSWVRQAPGKGLEWVATISSGGSYTYYPDSVKGRFTISRDNSKNTLYLQMNSLRAEDTAVYYCARQTTMTYFAYWGQGTLVTVSS
VL: QLVLTQSSSASFSLGASAKLTCTLSSQHSTYTIEWYQQQPLKPPKYVMDLKQDGSHSTGDGIPDRFSGSSSGAERYLTISSLQSEDEADYICGVGDTIKEQFVYVFGGGTKLTVL
notes: Human Cγ1 and human lambda C domain; Expressed in COS-7 cells; also called hMBC1HcDNA/pCOS1 + m/hMBC1Ldλ/neo
Take B5: the binding result in the test with human PTHrP (1-34) [2] is “binds”.

B6: humanized #23-57-137-1 antibody with H chain version "a" and L chain version "r" (antibody, V domains shown)
VH: QVQLVESGGGVVQPGRSLRLSCAASGFTFSSYGMSWVRQAPGKGLEWVATISSGGSYTYYPDSVKGRFTISRDNSKNTLYLQMNSLRAEDTAVYYCARQTTMTYFAYWGQGTLVTVSS
VL: QLVLTQSPSASASLGASVKLTCTLSSQHSTYTIEWYQQQPEKGPRYLMDLKQDGSHSTGDGIPDRFSGSSSGAERYLTISSLQSEDEADYICGVGDTIKEQFVYVFGGGTKLTVLG
notes: Human Cγ1 (IgG1) and human lambda C domain; also called hMBC1HcDNA + hMBC1Lrλ
Turning to B6, in the test with human PTHrP (1-34) [2], the binding result is “binds”.

B7: humanized #23-57-137-1 antibody with H chain version "a" and L chain version "t" (antibody, IgG1, V domains shown)
VH: QVQLVESGGGVVQPGRSLRLSCAASGFTFSSYGMSWVRQAPGKGLEWVATISSGGSYTYYPDSVKGRFTISRDNSKNTLYLQMNSLRAEDTAVYYCARQTTMTYFAYWGQGTLVTVSS
VL: QLVLTQSPSASASLGASVKLTCTLSSQHSTYTIEWYQQQPEKGPRYVMDLKQDGSHSTGDGIPDRFSGSSSGAERYLTISSLQSEDEADYICGVGDTIKEQFVYVFGGGTKLTVLG
notes: Human Cγ1 (IgG1) and human lambda C domain; Expressed in COS-7 cells; also called hMBC1HcDNA/pCOS1 + hMBC1Ltλ/pCOS1
Consider B7, for which the binding result in the test with human PTHrP (1-34) [2] is “binds”.

B8: humanized #23-57-137-1 antibody with H chain version "a" and L chain version "l" (antibody, IgG1, V domains shown)
VH: QVQLVESGGGVVQPGRSLRLSCAASGFTFSSYGMSWVRQAPGKGLEWVATISSGGSYTYYPDSVKGRFTISRDNSKNTLYLQMNSLRAEDTAVYYCARQTTMTYFAYWGQGTLVTVSS
VL: QLVLTQSPSASASLGASVKLTCTLSSQHSTYTIEWYQQQPEKGPKYVMDLKQDGSHSTGDGIPDRFSGSSSGAERYLTISSLQSEDEADYYCGVGDTIKEQFVYVFGGGTKLTVLG
notes: Human Cγ1 (IgG1) and human lambda C domain; Expressed in COS-7 cells; also called hMBC1HcDNA/pCOS1 + hMBC1Llλ/pCOS1
Turning to B8, the binding result with human PTHrP (1-34) [2] was “binds”.

B9: antibody in which humanized H chain version "a" was combined with a chimera L chain (antibody, V domains shown)
VH: QVQLVESGGGVVQPGRSLRLSCAASGFTFSSYGMSWVRQAPGKGLEWVATISSGGSYTYYPDSVKGRFTISRDNSKNTLYLQMNSLRAEDTAVYYCARQTTMTYFAYWGQGTLVTVSS
VL: QLVLTQSSSASFSLGASAKLTCTLSSQHSTYTIEWYQQQPLKPPKYVMDLKQDGSHSTGDGIPDRFSGSSSGADRYLSISNIQPEDEAMYICGVGDTIKEQFVYVFGGGTKVTVLG
notes: H chain has human Cγ1; also called humanized H chain version a + chimera L chain
For B9, the binding result in the test with human PTHrP (1-34) [2] was “binds”.

B10: humanized #23-57-137-1 antibody with H chain version "a" and L chain version "q" (antibody, IgG1, V domains shown)
VH: QVQLVESGGGVVQPGRSLRLSCAASGFTFSSYGMSWVRQAPGKGLEWVATISSGGSYTYYPDSVKGRFTISRDNSKNTLYLQMNSLRAEDTAVYYCARQTTMTYFAYWGQGTLVTVSS
VL: QLVLTQSPSASASLGASVKLTCTLSSQHSTYTIEWYQQQPEKGPKYLMDLKQDGSHSTGDGIPDRFSGSSSGAERYLTISSLQSEDEADYICGVGDTIKEQFVYVFGGGTKLTVLG
notes: Human Cγ1 (IgG1) and human lambda C domain; also called hMBC1HcDNA + hMBC1Lqλ; FERM BP-5629 / FERM BP-5630
For the molecule B10, in the test with human PTHrP (1-34) [2], the binding result was “binds”.

B11: human FR1/mouse FR2, 3, 4 hybrid antibody (L chain hmmMBC1L(λ)) (antibody, V domains shown)
VH: QVQLVESGGGVVQPGRSLRLSCAASGFTFSSYGMSWVRQAPGKGLEWVATISSGGSYTYYPDSVKGRFTISRDNSKNTLYLQMNSLRAEDTAVYYCARQTTMTYFAYWGQGTLVTVSS
VL: QLVLTQSPSASASLGASVKLTCTLSSQHSTYTIEWYQQQPLKPPKYVMDLKQDGSHSTGDGIPDRFSGSSSGADRYLSISNIQPEDEAMYICGVGDTIKEQFVYVFGGGTKVTVL
notes: Human Cγ1 and human lambda C domain; Expressed in COS-7 cells; also called hMBC1HcDNA/pCOS1 + hmmMBC1L(λ)/neo
Regarding B11, in the test with human PTHrP (1-34) [2], the binding result was “binds”.

B12: mouse FR1, 2/human FR3, 4 hybrid antibody (L chain m/hMBC1Laλ) (antibody, V domains shown)
VH: QVQLVESGGGVVQPGRSLRLSCAASGFTFSSYGMSWVRQAPGKGLEWVATISSGGSYTYYPDSVKGRFTISRDNSKNTLYLQMNSLRAEDTAVYYCARQTTMTYFAYWGQGTLVTVSS
VL: QLVLTQSSSASFSLGASAKLTCTLSSQHSTYTIEWYQQQPLKPPKYVMDLKQDGSHSTGDGIPDRFSGSSSGAERYLTISSLQSEDEADYYCGVGDTIKEQFVYVFGGGTKLTVL
notes: Human Cγ1 and human lambda C domain; Expressed in COS-7 cells; also called hMBC1HcDNA/pCOS1 + m/hMBC1Laλ/neo
Consider B12, for which the binding result in the test with human PTHrP (1-34) [2] was “binds”.

B13: humanized #23-57-137-1 antibody with H chain version "a" and L chain version "j" (antibody, IgG1, V domains shown)
VH: QVQLVESGGGVVQPGRSLRLSCAASGFTFSSYGMSWVRQAPGKGLEWVATISSGGSYTYYPDSVKGRFTISRDNSKNTLYLQMNSLRAEDTAVYYCARQTTMTYFAYWGQGTLVTVSS
VL: QLVLTQSPSASASLGASVKLTCTLSSQHSTYTIEWYQQQPEKGPKYLMDLKQDGSHSTGDGIPDRFSGSSSGAERYLTISSLQSEDEADYYCGVGDTIKEQFVYVFGGGTKLTVLG
notes: Human Cγ1 (IgG1) and human lambda C domain; Expressed in COS-7 cells; also called hMBC1HcDNA/pCOS1 + hMBC1Ljλ/pCOS1
For B13, the binding result in the test with human PTHrP (1-34) [2] is “binds”.

B14: humanized #23-57-137-1 antibody with H chain version "a" and L chain version "o" (antibody, IgG1, V domains shown)
VH: QVQLVESGGGVVQPGRSLRLSCAASGFTFSSYGMSWVRQAPGKGLEWVATISSGGSYTYYPDSVKGRFTISRDNSKNTLYLQMNSLRAEDTAVYYCARQTTMTYFAYWGQGTLVTVSS
VL: QLVLTQSPSASASLGASVKLTCTLSSQHSTYTIEWYQQQPEKGPRYVMDLKQDGSHSTGDGIPDRFSGSSSGAERYLTISSLQSEDEADYYCGVGDTIKEQFVYVFGGGTKLTVLG
notes: Human Cγ1 (IgG1) and human lambda C domain; Expressed in COS-7 cells; also called hMBC1HcDNA/pCOS1 + hMBC1Loλ/pCOS1
For the molecule B14, the binding result in the test with human PTHrP (1-34) [2] is given as “binds”.

B15: humanized #23-57-137-1 antibody with H chain version "a" and L chain version "m" (antibody, IgG1, V domains shown)
VH: QVQLVESGGGVVQPGRSLRLSCAASGFTFSSYGMSWVRQAPGKGLEWVATISSGGSYTYYPDSVKGRFTISRDNSKNTLYLQMNSLRAEDTAVYYCARQTTMTYFAYWGQGTLVTVSS
VL: QLVLTQSPSASASLGASVKLTCTLSSQHSTYTIEWYQQQPEKGPRYLMDLKQDGSHSTGDGIPDRFSGSSSGAERYLTISSLQSEDEADYYCGVGDTIKEQFVYVFGGGTKLTVLG
notes: Human Cγ1 (IgG1) and human lambda C domain; Expressed in COS-7 cells; also called hMBC1HcDNA/pCOS1 + hMBC1Lmλ/pCOS1
On to B15, for which the binding result in the test with human PTHrP (1-34) [2] is “binds”.
